Measurements reported in a protein production outcome set (Wang et al. 2014).

Assay: label from the status in PepcDB records
For “MTKITLSPQNFRIQKQETTLLKEKSTEKNSLAKSILAVKNHFIELRSKLSERFISHKNTESSATHFHRGSASEGRAVLTNKVVKDFMLQTLNDIDIRGSASKDPAYASQTREAILSAVYSKNKDQCCNLLISKGINIAPFLQEIGEAAKNVGLPGTTKNDVFTPSGAGANPFITPLISSANSKYPRMFINQHQQASFKIYAEKIIMTEVAPLFNECAMPTPQQFQLILENIANKYIQYTP”, the protein production was “failed”.
In the case of “MTKKAILLSFLGGFLSLSLEVIWIRLLGFQTFSLPQAFSFTLALFLLGIAFSSFIGKKVCQQGDASINYIGRIFFIAALFDCLAIGLISTTSNSFTNLVYSIFSIFCCALLRGIVFPIVHHLGSEHKKTGAAISNVYFANVLGCTIAPIFIGFYLLDQFTTQQTYLIVISITLIIACFCLTKRVFKAINALFAISVVFATALLPEKMISTLANEEDMQLETLIENKHGIIQVYLDKNQDHLVYGSNVYDGQLNVNLNHNSNGIHRAYLLPAHRK”, the protein production was “failed”.
With “MTKLPATSDIYISFFMFTTNLQPDNLDYRRIVVAHIKKLQRFGYSGFEFPIAPGLPENYAQDLENYTNLRHYLDSEGLENVKISTNVGATRTFDPSSNYPEQRQEALEYLKSRVDITAALGGEIMMGPIVIPYGVFPTTDFNEPIWSDELQEHLKVRYANAQPILDKLGEYAEIKKVKLAIEPITHWETPGPNKLSQLIEFLKGVKSKQVGVVIDSAHEILDGEGPEIFKTQVEYLAQQGRLHYVQVSPPDRGALHTSWLPWKSFLTPIVKVYDGPIAVEIFNAIPAFTNSLRLTRRKFWIPDEDPPNQYPNAYDIADEAIKVTRKELKKIGSK” the protein production was “not failed”.
In the case of “MTKMLKLFDAHFHIIDYRFPLITNQSYLPPEFTVEDYLQRAKPLNICGGAVVSGSFQAFDQSYLLAALSILGSDFVGVTQLPATVSDEEIIQLNQKGIRAVRFNVKRGGSENIHRLKYFAHRIYEMVRWHVEIYVDSKDLGDLTSLLLELPAVSIDHLGLSHSGFSQLLHLVEHGIKIKASGFGRVDFDVKKALQTIAQINPDALLFGTDLPSTRAPRPFLDSDIQIIQDLFDEKLTEKILYRNARNFYSKNSSELEHHHHHH”, the protein production was “not failed”.
For “MTKNKKGKNKEVINNYEEEEDYNIIDHDENAEVDVIPEPDFNSNMVYLNIYDLDSVSKVVNTVARSVGAGAFHAGVEVYGYEYSFGYIMDGETGVTKTNARVMIQKNNEILKNIKTYRIHVNIYIYIFLLVFSKTPLTKEEVDLLVEVMKLQWIGDTYDILSRNCLNYADYFCNLLDVGGIPEWVMSLQKKVTWVKSNINIAASKLKELNKAAGIPNVINYLKKKYEDSNSSDDYKGCKVVVK”, the protein production was “failed”.
With “MTKPQGAVAEKATPAVPKPQKVRVIVEFNKESILDYATEQKKTVAQLNQADVEKKLQSIKQEQDKVLKNIEKSVHFDSSKVKRYDAIINGVALDIQAQEIEKLKTIADVRRVYVSQEYVQTKPLLSSSGQLIGLPEVWNNSQYKGEGTVVAVIDSGVDFKHQALKIKEPNRAKYNKTSIEKLIHEKNLKGKFYSEKVPYGYNYYDYNDNLKDSYGVMHGMHVTGIVGANDDNQKLYGVAPNAQILAMKVFSDDQQNPTTFTDVWLKALDDAILLKADVVNMSLGTPAGFVHEGKDYPELEVIARACKAGIVIAVAAGNEGNITDGNTYGVKPLAENYDTALIANPALDDNTLAVASMENLKKHAHVLKFKDKKSGTEVTEVINLHVAPNASKTIIGLAVDLGAGAPSELSKHFDLSGKIAMLEIPEDNKSNGFLEKVQAITKLNPAAILLYNNAKVKDDLGSQLLVESEAAKFNIARITRSTYNNIKNNSNKIITILTERQAIDNSLAGQLSSYSSWGPTPDLRLKPEITAPGGHIFSTVEDNQYADKSGTSMAAPQVAGAAAVLKQYITDKKIPVDNAADFIKLLLMNTAQPIINKQSKDGKTPYFVRQQGSGAMNLAKALVTTVVATVTGTNDNNADGKLELRELKEKKFKARILLRNFGKTNKTYIISSEAIADPVDEKGFRTQNSEHLVSKKADAVTRKVTVEAGKTLAVDLDVDYSDAEALTRNNFLEGYLNLKDTEGVADLHLPFLGFYGSWTEQKAIDAFEGISEIGNGDKKRRVQFYVNKETNKTSSTFTTNGMLSLPIYNNTVFFSPNSPFYDKAGVRIAALRNMEYVQYSIIDPDTNKEVRVLGRSHDVRKLYRLDYRNSFAMMPDSIWDGKIKD” the protein production was “failed”.
With “MTKQKKLLPVASLLLGAAIWGVAWYPYRLLEQAGMRGELSTTLAYSIALLIGLILFRRQLRISEILNPAAGILFWISLSAGWTGIAYVLGIIHGEVMRVLLLFYLAPLWTILFSRILLQERLSRQGYAIILLSLAGALLLLWQPGSKLPLLASYGDWMGLSGGLAFALTNVLIRKDQQHGIQLKLLAVLSGTALTGFAATLLMESISDITHLHTHAWLILAGIGGLVFFLCILLQYGMTHIPANQAIVIMLFELVVAAIAAHFLTNEYLTGRDWAGGLMIASASLFSARVNRD” the protein production was “failed”.
For “MTKSKIIEIGPLVPAFEEEKIVILFGPTATNELREISVIHEFEAAPQSALSKGNTLQIGDQVYIIEEVGTEANKNLEELGHISIYFRSGQNEVLPGAIVVSPEVFPTLAIGDTIQF”, the protein production was “failed”.
For “MTKSQIMDLSNFYQDTDYPSGRLIALLILSLGLTPAEIANLKKADFDTTFNILSIEKSQMKRILKLPEDLLPFLLESLEEDGDLVFEHNGKPYSRQWFFNQLTDFLNEKNEQQLTAQLLREQFILKQKENGKTMTELSRLLGLKTPITLERYYRLEHHHHHH”, the protein production was “not failed”.
In the case of “MTKSTPHPSSIIKAEQQSLLYLHIAVFLFGGTALFSKLIGLPALDITVYRTGIAALALFILLTLQKKQISLSSMKDYGIAILLGCVVGLHWVTYFTGMQMAGVTVGMIAFFTYPVITVFIEPFFNRTVPKMKDMITAFVVIIGIVLLIPEISFGNQITLGIVTGIISAVFFALRNILHKNYFSHYSGPHTMLYQTLVACLMLCLFVEVPPMQVTESDWLLLLLVGVVFTATPHALFASSLRSLSATTAGLISCLQPLYGSILAIILLHERPDILTIIGGLLVVSAAIFETWSVSRGRR”, the protein production was “failed”.
For “MTKTWEQLSAIQPIGVKMLMNSIAKERISHAYLLEGEKGTGKFATAIQMAKSFLCSQRNRVEPCHVCTNCKRIDSGNHPNLHIVKPDGLSIKKQQIHDLQEEFSKTGLEANKKVYIIEHADRMTANAANALLKFLEEPSSDTTAILLTEQSHQILNTILSRCQVVTFRPLPTESLIRRLQDEGITVSLSTLAAQLTNSFDEALTLCNDEWFAQARALVIKLCEALEKDKASIFFVQEKWGKHFGEKEQLQQGLDMLLLIYKDLLYVQLGEEDRLVFREQKEMFESFSYAQKRIVSALFNILEAKNRINANVNAQLVFEQLVLRLQEG”, the protein production was “failed”.
In the case of “MTKYALVGDVGGTNARLALCDIASGEISQAKTYSGLDYPSLEAVIRVYLEEHKVEVKDGCIAIACPITGDWVAMTNHTWAFSIAEMKKNLGFSHLEIINDFTAVSMAIPMLKKEHLIQFGGAEPVEGKPIAVYGAGTGLGVAHLVHVDKRWVSLPGEGGHVDFAPNSEEEAIILEILRAEIGHVSAERVLSGPGLVNLYRAIVKADNRLPENLKPKDITERALADSCTDCRRALSLFCVIMGRFGGNLALNLGTFGGVFIAGGIVPRFLEFFKASGFRAAFEDKGRFKEYVHDIPVYLIVHDNPGLLGSGAHLRQTLGHIL”, the protein production was “not failed”.
With “MTLDAAPHLHPAVLSPRPQPGRHRRDLHQSSRAFVLLTCIVATLALMLSLPAGLQAAEATVIVPFGGGILRDDAQTVAAAAARIEALRLSTASLGRDSAALFSAETPARLLSLTAATFEAHTTATSVVGYPPEVEVAVNIRTTPRGGDAATALRAALRAPEKLELREGILLHTRENLLEARQLALDAARHRQKAGTESESPYDRRFAALARTLRSLDTLERALSYLDGVWRHPIILAADMRQVVEASPEMPLGWTFLGEALLQLDRPQDAVEALDRALALPDAPVRARLARGIANLRLDLTALAVDDLSRVLREAPRLAPAWRARGAARMMRREYGPMCEDFIQACNLGDCEGLASARDAGHCLAPARPQTVKADD” the protein production was “failed”.
In the case of “MTLFDGTPFEWAPGRIEVRARRECGASRKSLVVAAGVSYLARMIFSFDAFVTNALFDRSGRAMFALGDGTVRLQTDEGFVTVEAHGGPLGGAVLAAAVHPSGAGIVTGGDDGRVVWSRIEGGEVVATLIAEVKNKWIEHVAASAASGLIAFTVGKEVHVRDAADPAFARTFPHEKTVSGLAFEPKGRRLASATYGGAYLWYARIADQKPTVLKWAGSHIAVEFSPDGKFLISSMQENQLHGWRLSDGKDMRMGGYPSKIKSVAFFDKGNLLATAGASGAVIWPFAGANGPMGKEAAEIGFSRDSMVVRVAGIDPQPVCIAGQDSGKIWAAHMRNGRIETLKAEKGAPISALSVSADGKRLAWGDESGEAGVLEIPDLSGPRQFVG”, the protein production was “failed”.
For “MTLGLKDLYYAVCTEADGAESYGTPKKMAEAMSADLSVKTADGSLYADDTLSESVTEFASGTLKLGIKDLTPEVLAELLGQAVDKNSVVWAGKEDEPPYVAVGFRAKKTGGKYRYVWLLKAKFKVPSEKYETKGESIKFNTPDIEASFTTRKKDNLWKADFVGTEESAAAKTWFTAVPEKAAAMESVLEHHHHHH”, the protein production was “not failed”.
In the case of “MTLHEHTDEETAEHNLPSKSSGSTRRLALVAVVNFFGFVIELAGGLLFGSVALISDALHMLFDMLAYAMAFGASYTAERFEGGEAWSYGLHRLEPVAAFLNGVLLLPMVGYIVWESYQRFLEPVAINPELTLIIATGGLLVNIGSVYVLQGGEMSLNERGAFYHLLGDAGGSVAVIVSTAAVAVFDLPIADPVAAVLIGLLVLASAGNVLRESTSILLERSPVSSEELRDELTTLDGVDQIEDLHVWQVCSQLTVATVRLTDTSTTLEEQRRIQSRVHDYLTNRGIDHATVELVGRTDPDTDPVGTTNHSH”, the protein production was “failed”.
In the case of “MTLISRILGLVRDVVIASLLGAGAMSDVFLFANRIPNFLRRLFAEGAFSKAFVPVLAEYNADNDLDKTREFIAKVSGTLGLLVTVVTLVAMLISPIIAALFGTGWFIDWFNDGPDAQKFTQASLLLKITFPYLWFITFIALSGAVLNTIGKFGVMAFSPVLLNVAMISMALFGADYFEQPDIALAWGIFLGGLLQFLFQIPFMIKERLLVKPKWAWKDEGVTKVRRLMIPALFGVSVTQINLLLNQVIASFLVTGSITWLYYSDRLIEFPLGLFGIAISTVVLPNLSRITKKKALNEEQRAIAFKQTLDWGVRMVVALGIPAMVGIAILAQPLIMTIFMRGKFVLADVIATSHALWIMCLGLNSYMLISVLANGFYARQNTKTPVKIGIIATIANICFGVLAIPFGYLGLAMASALSAAVNASLLYYNLVKEQAYCLSKKTVIFILKVAISACAMGVLVSYFSPTLTDWYAMKMWLKVHWLVWLISLAAISYFAVLMVLGIRKQDFRA”, the protein production was “failed”.
With “MTLKLIGAGFGRTGTWSTFAALNRLGLPCYHMQEVIMNKANKGHLDFWRKVANSPPGSQHDWNRVFANYTATVDNPGCCVWKELLAAYPDAKVLLTLHPRGAEAWYESTIDTIYFTENVWQFKILEWLTPFGWKFGDMSRKLIWGRTLDGVMNDRAKAVARYNTYVEQVKAAVPPHKLLVYKVTEGWAPLCDFLGVALPNEPFPNLNDRETIKKIIRDIIKGSYIMLGLAIAAIVAVVAALWWWLG” the protein production was “failed”.
With “MTLLRDHDLARAFDHASHTYDGLTALNPGYRTGLLRSARRLALPADGAGLHLLDLGCGTGASTRALLRAAPRARITAVDASAGMLRRALVKPWPARVRFLHLTAEEFATTREDEGPFDAVFAAYLFRNVTDPDAVLRAVRQLLRPGGRFAAHEYSLSGSPGHRALWSAVCRGVVIPAGTLTGDRTLYRHLRRSVVAFDTAPEFAARLTRAGLTSVRVAPVAGWQTGIVHTFLARNGGPTTTEERVL” the protein production was “failed”.
